Experiment [1] deals with T1, human TNC in the ECM of tumors and lung metastases derived from human TNBC cell line LM2 (Homo sapiens (LM2 cells), UniProt P24821).
T1 construct: tenascin-C, human, made by LM2 human TNBC cells in xenografts; also called hTNC; TNC fibrils; source: endogenous, ECM of LM2 (LM2-TGL-ZsGreen) tumors and lung metastases in NSG mice
The experiment in a line: two-photon microscopy of resected organs after intravenous injection of labelled nanobody; Alexa-647 labelled nanobodies injected via the tail vein into NSG mice with LM2-TGL-ZsGreen tumors; organs resected 2 hours after injection and imaged. Particulars: one partner purified.

In experiment [2] the target is T2, mouse TNC on tissue sections of lung metastases derived from murine TNBC cell line 4T1 (Mus musculus (4T1 metastases in BALB/c), UniProt Q80YX1).
T2 construct: tenascin-C, mouse, endogenous in 4T1 lung metastases; source: endogenous, 4T1 lung metastases in BALB/c mice, tissue sections
T2 sequence (Q80YX1 23-2110): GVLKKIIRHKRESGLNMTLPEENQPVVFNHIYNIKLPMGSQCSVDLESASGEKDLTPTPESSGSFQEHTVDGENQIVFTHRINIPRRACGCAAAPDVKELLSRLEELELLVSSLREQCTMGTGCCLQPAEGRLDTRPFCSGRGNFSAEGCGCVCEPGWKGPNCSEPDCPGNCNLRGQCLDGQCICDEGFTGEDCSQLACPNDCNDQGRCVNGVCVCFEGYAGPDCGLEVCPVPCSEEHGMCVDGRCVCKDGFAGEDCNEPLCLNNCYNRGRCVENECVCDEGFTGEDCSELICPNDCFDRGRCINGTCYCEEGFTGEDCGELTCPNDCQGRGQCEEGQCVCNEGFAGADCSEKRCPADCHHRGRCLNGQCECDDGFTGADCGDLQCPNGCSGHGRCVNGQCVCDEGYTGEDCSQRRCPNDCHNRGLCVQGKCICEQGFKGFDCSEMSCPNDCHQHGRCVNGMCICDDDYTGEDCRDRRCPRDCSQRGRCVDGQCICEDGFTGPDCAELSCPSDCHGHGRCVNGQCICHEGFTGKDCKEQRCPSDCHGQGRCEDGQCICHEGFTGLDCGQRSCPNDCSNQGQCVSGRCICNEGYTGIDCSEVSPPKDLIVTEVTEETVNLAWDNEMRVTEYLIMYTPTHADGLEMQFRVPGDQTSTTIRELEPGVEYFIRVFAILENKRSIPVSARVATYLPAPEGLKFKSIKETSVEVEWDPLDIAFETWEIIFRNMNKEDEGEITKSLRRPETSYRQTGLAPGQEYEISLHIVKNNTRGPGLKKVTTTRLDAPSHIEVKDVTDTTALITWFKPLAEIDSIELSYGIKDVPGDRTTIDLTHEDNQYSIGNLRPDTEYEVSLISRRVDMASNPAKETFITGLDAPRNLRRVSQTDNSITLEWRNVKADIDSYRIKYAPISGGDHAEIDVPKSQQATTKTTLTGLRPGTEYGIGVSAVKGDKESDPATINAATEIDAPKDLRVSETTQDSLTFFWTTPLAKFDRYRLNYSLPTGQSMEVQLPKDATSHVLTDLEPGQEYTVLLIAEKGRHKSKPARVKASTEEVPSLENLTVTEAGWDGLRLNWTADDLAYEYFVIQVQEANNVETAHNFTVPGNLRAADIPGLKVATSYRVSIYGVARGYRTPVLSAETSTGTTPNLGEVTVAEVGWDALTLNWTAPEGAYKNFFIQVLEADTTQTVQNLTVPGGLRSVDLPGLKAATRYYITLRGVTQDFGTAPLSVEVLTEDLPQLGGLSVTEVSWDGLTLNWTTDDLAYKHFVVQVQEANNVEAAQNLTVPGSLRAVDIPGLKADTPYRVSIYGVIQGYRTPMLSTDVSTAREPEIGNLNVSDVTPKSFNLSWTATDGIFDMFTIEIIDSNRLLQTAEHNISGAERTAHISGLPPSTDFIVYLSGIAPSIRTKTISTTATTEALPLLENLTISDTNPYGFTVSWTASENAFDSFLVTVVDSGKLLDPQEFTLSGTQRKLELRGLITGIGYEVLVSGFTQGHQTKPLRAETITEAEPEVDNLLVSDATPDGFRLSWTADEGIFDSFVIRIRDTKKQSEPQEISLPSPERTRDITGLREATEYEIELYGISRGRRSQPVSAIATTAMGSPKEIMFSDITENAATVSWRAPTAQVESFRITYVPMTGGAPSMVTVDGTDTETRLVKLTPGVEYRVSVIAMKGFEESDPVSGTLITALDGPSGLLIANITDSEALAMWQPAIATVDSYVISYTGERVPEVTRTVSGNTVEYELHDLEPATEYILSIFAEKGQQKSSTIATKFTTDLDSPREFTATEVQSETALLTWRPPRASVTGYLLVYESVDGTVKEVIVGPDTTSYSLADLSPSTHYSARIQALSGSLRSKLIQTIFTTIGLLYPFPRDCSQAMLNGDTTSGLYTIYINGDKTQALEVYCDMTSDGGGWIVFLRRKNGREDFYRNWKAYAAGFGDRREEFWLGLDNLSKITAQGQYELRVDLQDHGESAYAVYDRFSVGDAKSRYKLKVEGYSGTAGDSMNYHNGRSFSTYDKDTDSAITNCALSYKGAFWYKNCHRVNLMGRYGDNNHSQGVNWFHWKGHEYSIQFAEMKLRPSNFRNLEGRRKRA
The experiment in a line: immunostaining of cells or tissue; IHC with the nanobodies on tissue sections of lung metastases (LM2 in NSG mice; 4T1 in BALB/c mice). The following applies: one partner purified.

Experiment [3] has as its target T3, full-length human TNC protein (Homo sapiens, UniProt P24821).
T3 construct: tenascin-C, human, full-length recombinant protein (Sigma); also called human tenascin-C; hTNC; source: bought: Sigma-Aldrich (purified, recombinant)
The experiment in a line: far-Western, overlay or dot blot; immunoblot of human TNC protein probed with the nanobodies. The following applies: both partners purified. (In general: In western blotting, separated proteins are transferred to a membrane and probed.)

T3 sequence (P24821 23-2201): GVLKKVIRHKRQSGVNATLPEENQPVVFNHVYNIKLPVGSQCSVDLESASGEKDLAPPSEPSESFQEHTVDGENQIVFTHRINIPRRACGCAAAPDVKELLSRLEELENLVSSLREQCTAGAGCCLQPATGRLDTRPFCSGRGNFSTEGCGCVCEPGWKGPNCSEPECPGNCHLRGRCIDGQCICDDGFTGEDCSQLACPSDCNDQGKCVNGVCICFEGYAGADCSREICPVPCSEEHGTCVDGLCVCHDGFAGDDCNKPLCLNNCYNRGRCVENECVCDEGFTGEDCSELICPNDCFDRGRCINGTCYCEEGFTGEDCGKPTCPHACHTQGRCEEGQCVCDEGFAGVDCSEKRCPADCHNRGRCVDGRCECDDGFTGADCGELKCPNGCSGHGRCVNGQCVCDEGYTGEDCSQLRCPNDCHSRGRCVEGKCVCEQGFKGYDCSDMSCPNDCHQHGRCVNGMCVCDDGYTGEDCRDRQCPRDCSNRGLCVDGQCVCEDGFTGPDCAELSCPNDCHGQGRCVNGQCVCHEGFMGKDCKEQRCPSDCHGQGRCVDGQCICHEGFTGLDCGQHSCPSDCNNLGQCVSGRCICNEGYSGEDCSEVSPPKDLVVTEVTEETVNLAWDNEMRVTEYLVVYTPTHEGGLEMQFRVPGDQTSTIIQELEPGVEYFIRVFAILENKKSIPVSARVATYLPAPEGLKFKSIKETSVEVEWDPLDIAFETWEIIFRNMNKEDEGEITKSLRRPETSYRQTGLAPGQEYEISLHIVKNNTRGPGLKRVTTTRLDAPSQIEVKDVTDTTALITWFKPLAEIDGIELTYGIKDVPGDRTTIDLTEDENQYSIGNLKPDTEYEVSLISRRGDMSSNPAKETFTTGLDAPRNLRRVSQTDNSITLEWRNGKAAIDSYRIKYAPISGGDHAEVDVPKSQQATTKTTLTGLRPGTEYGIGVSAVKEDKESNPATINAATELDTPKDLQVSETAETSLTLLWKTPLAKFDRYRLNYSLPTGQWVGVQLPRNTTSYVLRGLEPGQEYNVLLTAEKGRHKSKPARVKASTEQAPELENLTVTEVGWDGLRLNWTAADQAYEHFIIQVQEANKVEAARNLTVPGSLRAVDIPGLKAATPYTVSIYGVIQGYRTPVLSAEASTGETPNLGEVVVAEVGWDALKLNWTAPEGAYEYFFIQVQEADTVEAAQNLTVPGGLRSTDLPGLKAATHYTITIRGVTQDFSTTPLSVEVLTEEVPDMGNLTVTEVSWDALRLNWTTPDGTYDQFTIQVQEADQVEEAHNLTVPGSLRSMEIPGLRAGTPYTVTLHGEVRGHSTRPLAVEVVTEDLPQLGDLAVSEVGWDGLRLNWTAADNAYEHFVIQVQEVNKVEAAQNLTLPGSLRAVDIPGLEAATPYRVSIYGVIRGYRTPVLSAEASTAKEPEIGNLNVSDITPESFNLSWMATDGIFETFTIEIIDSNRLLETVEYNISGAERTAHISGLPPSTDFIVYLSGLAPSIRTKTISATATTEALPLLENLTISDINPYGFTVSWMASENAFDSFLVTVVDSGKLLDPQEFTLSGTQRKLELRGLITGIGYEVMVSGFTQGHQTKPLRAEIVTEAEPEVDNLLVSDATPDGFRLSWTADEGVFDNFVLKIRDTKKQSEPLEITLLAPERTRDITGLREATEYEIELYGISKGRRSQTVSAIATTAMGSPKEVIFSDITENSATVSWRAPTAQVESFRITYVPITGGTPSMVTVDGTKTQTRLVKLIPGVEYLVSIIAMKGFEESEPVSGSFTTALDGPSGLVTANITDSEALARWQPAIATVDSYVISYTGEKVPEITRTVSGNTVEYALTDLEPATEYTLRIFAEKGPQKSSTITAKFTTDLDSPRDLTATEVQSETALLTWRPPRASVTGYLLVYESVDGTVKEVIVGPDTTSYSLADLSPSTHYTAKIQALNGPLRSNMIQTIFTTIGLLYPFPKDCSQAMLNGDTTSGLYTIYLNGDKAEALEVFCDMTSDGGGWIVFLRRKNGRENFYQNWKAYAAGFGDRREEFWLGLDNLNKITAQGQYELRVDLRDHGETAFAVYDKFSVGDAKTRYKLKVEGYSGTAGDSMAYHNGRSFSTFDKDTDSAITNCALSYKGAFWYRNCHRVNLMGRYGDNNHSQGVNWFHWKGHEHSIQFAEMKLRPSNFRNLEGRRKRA
T1 sequence (P24821 23-2201): as above

B1: NJT4 (VHH)
VHH: QVQLVESGGGLVQPGGSLRLSCAASGFTFSSYTMRWYRQAPGKERELVAFIGVAGGSTKYADSVKGRFTISRDNTKNTVYLQMNTLKPEDTAVYYCYAPLTPYWGQGTQVTVSS
notes: The label differs between experiments (biotin, Alexa-647); also called anti-TNC nanobody NJT4; 64Cu-NJT4; source: selected from alpaca phage-display library B; expressed and purified by methods previously described; not shown: sortase tag, C-terminal, kept
Turning to B1, the results for the binding result in experiment [1], in experiment [2] and in experiment [3] were “binds”, “no binding” and “binds”, respectively.

B2: NJT6 (VHH)
VHH: QVQLVETGGDLVQPGGSLRLSCAASGLTLDYYAIGWVRQAPGKEREGVSCITPQDGNTYYDDSVMGRFTILRDNAKNMVYLQMNNLKPEDTAVYFCAAAGALTLDPSEYEYWGQGTQVTVSS
notes: The label differs between experiments (biotin, Alexa-647); also called anti-TNC nanobody NJT6; 64Cu-NJT6; source: selected from alpaca phage-display library B; expressed and purified by methods previously described; not shown: sortase tag, C-terminal, kept
With B2, the values for the binding result in experiment [1], in experiment [2] and in experiment [3] were “binds”, “no binding” and “binds”, respectively.

B3: NJT3 (VHH)
VHH: QVQLVETGGGLAQAGGSLRLSCAASGRTLSGYAMGWFRQAPGKEREFVAAISWSGRNTYYDYTVQGRFTISKDNAKNTVNLQMNSLKPEDTAVYYCAVSRSLDEFGDGYEMDYWGDGTQVTVSS
notes: The label differs between experiments (biotin, Alexa-647); also called anti-TNC nanobody NJT3; 64Cu-NJT3; source: selected from alpaca phage-display library B; expressed and purified by methods previously described; not shown: sortase tag, C-terminal, kept
For B3, the binding result in experiment [1] is reported as “binds”; in experiment [2] it was “no binding”; in experiment [3], “binds”.

These data come from paper PMC10267678, “Proteomic Profiling of Extracellular Matrix Components from Patient Metastases Identifies Consistently Elevated Proteins for Developing Nanobodies That Target Primary Tumors and Metastases” (Cancer Research, 2023).
